Tests used:
p75 TNF receptor = molecular target: T1, p75 TNF receptor (Homo sapiens, UniProt P20333); assay: Two-hybrid test of MORT-1 binding (FIG. 1), p75 TNF receptor; details: p75-IC residues 287-461, FIG. 1
T1 construct: human p75 TNF receptor (p75-IC, residues 287-461); expressed in transfected cells; host or cells: SFY526 yeast
T1 sequence (P20333 287-461): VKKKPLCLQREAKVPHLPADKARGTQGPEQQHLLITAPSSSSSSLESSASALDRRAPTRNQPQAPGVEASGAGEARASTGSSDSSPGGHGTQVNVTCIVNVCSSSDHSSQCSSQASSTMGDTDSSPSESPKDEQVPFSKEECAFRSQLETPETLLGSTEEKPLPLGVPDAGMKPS
Source text: To isolate proteins interacting with the intracellular domain of the FAS-R, the yeast two-hybrid system was used (Fields and Song, 1989). […] In this system, the genes for the candidate interacting proteins are cloned into separate expression vectors. In one expression vector, the sequence of the one candidate protein is cloned in phase with the sequence of the GAL4 DNA-binding domain to generate a hybrid protein with the GAL4 DNA-binding-domain, and in the other vector, the sequence of the second candidate protein is cloned in phase with the sequence of the GAL4 activation domain to generate a hybrid protein with the GAL4-activation domain. The two hybrid vectors are then co-transformed into a yeast host strain having a lacZ or HIS3 reporter gene under the control of upstream GAL4 binding sites. Only those transformed host cells (cotransformants) in which the two hybrid proteins are expressed and are capable of interacting with each other, will be capable of expressing the reporter gene. In the case of the lacZ reporter gene, host cells expressing this gene will become blue in color when X-gal is added to the cultures. […]
In FIG. 1, there is depicted the interaction of the proteins encoded by the Gal4 DNA binding domain and activation-domain constructs (pGBT9 and pGAD-GH) within transfected SFY526 yeasts as assessed by β-galactosidase expression filter assay. […]

HeLa cells = assay: Cytotoxicity triggered by induced expression of MORT-1 in HeLa cells; type: cell-based, human; details: tetracycline-controlled transient expression; neutral red uptake or secreted placental alkaline phosphatase
Experimental: MORT-1, Fas-IC, p55-IC and luciferase cDNAs were inserted into a tetracycline-controlled expression vector and transfected to HtTA-1 cells (a HeLa cell line) (Gossen and Bujard, 1992) together with the secreted placental alkaline phosphatase cDNA, placed under control of SV40 promoter (the pSBC-2 vector, Dirks et al, 1993). Cell death was assessed 40 hours after transfection, either by the neutral-red uptake assay (Wallach, 1984) or, for assessing specifically the death in those cells that express the transfected cDNAs, by determining the amounts of placental alkaline phosphatase (Berger et al, 1988) secreted to the growth medium at the last 5 hours of incubation.
High expression of p55-IC results in triggering of a cytocidal effect (Boldin et al, 1995). The expression of Fas-IC in HeLa cells also has such an effect, though to a lower extent, which could be detected only with the use of a sensitive assay. The ligand independent triggering of cytocidal effects in cells transfected with MORT-1, as well as human p55-IC and FAS-IC, was thus analyzed. The effect of transient expression of MORT-1, human Fas-IC, human p55-IC, or luciferase that served as a control, on the viability of HeLa cells was assessed using a tetracycline-controlled expression vector. […]

B1: MORT-1: Mediator of Receptor-induced Toxicity; protein binding the intracellular domain of FAS-R, SEQ ID NO:2 (protein)
chain: VNQAPECRFGGGILGPLGKRRDLARASEPRTEGARRAGPQPRPLADPAMDPFLVLLHSVSSSLSSSELTELKFLCLGRVVKRKLERVQSGLDLFSMLLEQNDLEPGHTELLRELLASLRRHDLLRRVDDFEAGAAAGAAPGEEDLCAAFNVICDNVGKDWRRLARQLKVSDTKIDSIEDRYPRNLTERVRESLRIWKNTEKENATVAHLVGALRSCQMNLVADLVQEVQQARDLQNRSGAMSPMSWNSDASTSEAS
binding to p75 TNF receptor in two-hybrid test (p75 TNF receptor): not | cell death on expression in HeLa cells (HeLa cells): significant cell death
